# According to paper PMC9800250:
# Positions count from the first letter of the chain named. In names and notes the source's numbering stands.
# B1: ScGPPC2MT (GPP C2-methyltransferase) (Streptomyces coelicolor A3(2)) (protein)
# chain: MTTETTTATATAKIPAPATPYQEDIARYWNNEARPVNLRLGDVDGLYHHHYGIGPVDRAALGDPEHSEYEKKVIAELHRLESAQAEFLMDHLGQAGPDDTLVDAGCGRGGSMVMAHRRFGSRVEGVTLSAAQADFGNRRARELRIDDHVRSRVCNMLDTPFDKGAVTASWNNESTMYVDLHDLFSEHSRFLKVGGRYVTITGCWNPRYGQPSKWVSQINAHFECNIHSRREYLRAMADNRLVPHTIVDLTPDTLPYWELRATSSLVTGIEKAFIESYRDGSFQYVLIAADRV
# B2: ScGPPC2MT (GPP C2-methyltransferase) (Streptomyces coelicolor A3(2); F222Y/G202M) (protein)
# chain: B1 chain with G202M, F222Y
# Experiments:
# [1] = substrate: CC(C)=CCC/C(C)=C/COP(=O)(O)OP(=O)(O)O; assay: HPLC of S-adenosylhomocysteine formation, steady state; assay type: biochemical, Streptomyces coelicolor; settings: 100 μM SAM, 10 mM MgCl2, pH 7.0, 30°C, 20 min, 2 μM enzyme
# [2] = substrate: CC(C)=CCOP(=O)(O)OP(=O)(O)O; assay: as above; assay type: biochemical, Streptomyces coelicolor; settings: 100 μM SAM, 10 mM MgCl2, pH 7.0, 30°C, 20 min, 5 μM enzyme
protein,measurement,setting,value
B1,Km,[1],0.88 ± 0.09 µM
same,kcat,[1],(4.90 ± 0.16) × 10^−4 s^−1
B2,Km,[2],5.33 ± 0.81 µM
same,kcat,[2],(9.59 ± 0.25) × 10^−5 s^−1
